According to patent US20040213795A1 (Pfizer, published 2004):

B1: PD1-33 scFv (scFv, V domains shown)
VH: QVQLVQSGAEVKKPGASVRVSCKASGYTLTSYYIHWVRQAPGQGLEWMGIINPRGATISYAQKFQGRVTMTRDTSTSTVYMELRNLKSEDTALYYCATAGIYGFDFDYWGRGTLVTVSS
VL: QSALTQPASVSGSPGQSITISCTGTSNDVGGYNYVSWYQHHPGKAPKLIIYDVTNRPSGVSDRFSGSKSGNTASLTISGLLAEDEGDYYCSSYTIVTNFEVLFGGGTKLTV
B2: PD1-33 IgG (antibody, V domains shown)
VH: B1 VH
VL: B1 VL
B3: PD1-35 IgG (antibody, V domains shown)
VH: QVQLQESGPGLVKPSQTLSLTCTVSGGSISSGAYYWSWIRQHPGKGLEWIGYIYYNGNTYYNPSLRSLVTISVDASKNQFSLKLSSVTAADTAVYYCARASDYVWGGYRYMDAFDIWGRGTLITVSS
VL: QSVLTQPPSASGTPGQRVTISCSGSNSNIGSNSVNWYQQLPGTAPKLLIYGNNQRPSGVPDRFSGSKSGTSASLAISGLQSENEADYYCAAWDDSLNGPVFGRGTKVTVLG
notes: also called PD-35
B4: PD1-17 scFv (scFv, V domains shown)
VH: QVQLQESGPGVVKPSGTLSLTCAISGGSIGSGGSIRSTRWWSWVRQSPGKGLEWIGEIYHSGSTNYNPSLKSRVTISLDKSRNHFSLRLNSVTAADTAVYYCARQDYGDSGDWYFDLWGKGTMVTVSS
VL: NFMLTQPHSVSESPGKTVTISCTRSSGSIASNSVQWYQQRPGSSPTTVIYEDNQRPSGVPDRFSGSIDSSSNSASLTVSGLKTEDEADYYCQSSDSSAVVFGSGTKLTVL
notes: not shown: scFv linker, order of the domains and vector tags (pCANTAB6 phagemid library)
B5: PD1-17 IgG (antibody, V domains shown)
VH: B4 VH
VL: B4 VL
notes: also called anti-PD-1 antibody PD1-17
B6: PD1-28 IgG (antibody, V domains shown)
VH: EVQLVQSGAEVKKPGASVKVSCKASGYRFTSYGISWVRQAPGQGLEWMGWISAYNGNTNYAQKLQGRVTMTTDTSTNTAYMELRSLRSDDTAVYYCARDADYSSGSGYWGQGTLVTVSS
VL: SYELTQPPSVSVSPGQTARITCSGDALPKQYAYWYQQKPGQAPVMVIYKDTERPSGIPERFSGSSSGTKVTLTISGVQAEDEADYYCQSADNSITYRVFGGGTKVTVL
B7: PD1-28 scFv (scFv, V domains shown)
VH: B6 VH
VL: B6 VL
notes: as for B4
B8: PD1-F2 scFv (scFv, V domains shown)
VH: EVQLVQSGGGVVQPGRSLRLSCAASGFTFSSYWMSWVRQAPGKGLEWVSAISGSGGSTYYADSVKGRFTISRDNSKNTLYLQMNSLRAEDTAVYYCAKENWGSYFDLWGQGTTVTVSS
VL: DIVMTQSPSTLSASVGDRVTITCRASQGISSWLAWYQQKPGRAPKVLIYKASTLESGVPSRFSGSGSGTDFTLTISSLQPEDFATYYCQQSYSTPWTFGQGTKLEIK
B9: PD1-F2 IgG (antibody, V domains shown)
VH: B8 VH
VL: DIVMTQSPSTLSASVGDRVTITCRASQGISSWLAWYQQKPGRAPKVLIYKASTLESGVPSRFSGSGSGTDFTLTISSLQPEDFATYYCQQSYSTPWTFGQGTKLEIKR
notes: also called anti-mouse PD1 antibody PD1-F2

Tests used:
[1] = molecular target: T1, Human PD-1 fusion protein (human, UniProt Q15116 25-167); experiment: scFv; inhibition of biotinylated human PD-L1 fusion binding to plate-bound human PD-1 fusion
T1 construct: also called Soluble PD-1 fusion protein; human PD-1/IgG chimera; not shown: fusion partner, called IgG in 'PD-1/IgG chimera'
T1 sequence (Q15116 other isoform, or with tags, fused parts or gaps): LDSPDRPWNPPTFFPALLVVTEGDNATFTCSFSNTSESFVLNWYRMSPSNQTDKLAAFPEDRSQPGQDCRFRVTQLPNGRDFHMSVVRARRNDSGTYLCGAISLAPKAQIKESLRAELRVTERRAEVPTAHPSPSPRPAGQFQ
Method: ScFv production was induced by addition of 1 mM IPTG to exponentially growing cultures and incubation overnight at 30° C. Crude scFv-containing periplasmic extracts were obtained by subjecting the bacterial pellets from the overnight induction to osmotic shock. Pellets were resuspended in 20% (w/v) sucrose, 50 mM Tris-HCl, pH 7.5, 1 mM EDTA and cooled on ice for 30 minutes. Cellular debris was removed by centrifugation, and the scFv was purified by chromatography and buffer-exchanged into PBS. Purified scFv's (PD1-17, PD1-28, PD1-33, and PD1-35) were tested for the ability to inhibit the binding of biotinylated human PD-L1 fusion protein to human PD-1 fusion protein immobilized on plastic in a 96 well microtiter plate assay. Binding of biotinylated PD-L1 fusion protein was detected with AMDEX-alkaline phosphatase, and the signal generated was measured by reading the absorbance at 405 nm using a microtiter plate reader. Data was expressed as a percentage of the total binding and a titration of scFv concentrations was tested to establish clone potency as calculated IC₅₀ values.

[2] = molecular target: T1, Human PD-1 fusion protein; experiment: IgG; inhibition of biotinylated human PD-L1 fusion binding to plate-bound human PD-1 fusion
Method: Crude scFv-containing periplasmic extracts were obtained by subjecting the bacterial pellets from the overnight induction to osmotic shock. Pellets were resuspended in 20% (w/v) sucrose, 50 mM Tris-HCl, pH 7.5, 1 mM EDTA and cooled on ice for 30 minutes. Cellular debris was removed by centrifugation, and the scFv was purified by chromatography and buffer-exchanged into PBS. […] Binding of biotinylated PD-L1 fusion protein was detected with AMDEX-alkaline phosphatase, and the signal generated was measured by reading the absorbance at 405 nm using a microtiter plate reader. […]

Murine PD-1 on cells [3] = molecular target: T2, Murine PD-1 on cells (mouse, UniProt Q02242 25-288); experiment: scFv; inhibition of biotinylated murine PD-L1 fusion binding to cells expressing murine PD-1
T2 construct: also called Cells expressing murine PD-1
T2 sequence: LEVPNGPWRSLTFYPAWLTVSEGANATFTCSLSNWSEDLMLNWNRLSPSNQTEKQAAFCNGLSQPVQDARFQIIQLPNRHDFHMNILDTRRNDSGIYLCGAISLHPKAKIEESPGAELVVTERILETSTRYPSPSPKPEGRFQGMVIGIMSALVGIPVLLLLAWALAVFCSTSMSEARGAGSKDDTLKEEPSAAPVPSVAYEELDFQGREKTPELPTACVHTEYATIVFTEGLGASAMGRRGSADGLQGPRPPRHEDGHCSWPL
Method: (§1) PD1-F2 scFv was produced and purified as described above. Cells expressing murine PD-1 were added at 10⁵ cells/well in a final volume of 100 μl to a poly-D-lysine-coated 96 well microtiter plate. Cells were centrifuged and washed twice in PBS, then blocked with 300 μl […] in PBS for 1 hour at room temperature. Blocked cells were washed three times in PBST, prior to addition of 25 μl/well of assay buffer (0.05% BSA, 0.05% Tween 20 in Dulbecco's PBS) or sample, followed by 25 μl of biotinylated murine PD-L1 fusion protein at 300 ng/ml. Binding of biotinylated PD-L1 fusion protein was detected with Amdex alkaline phosphatase and signals read as described above.

[4] = molecular target: T3, Murine PD-1 fusion protein (mouse, UniProt Q02242 25-167); experiment: SPR (BIAcore 3000), murine PD-1 fusion immobilized on CM5 chip, antibody 7.81 to 125 nM in flow
T3 construct: also called mouse PD-1 fusion protein; not shown: fusion partner not described
T3 sequence: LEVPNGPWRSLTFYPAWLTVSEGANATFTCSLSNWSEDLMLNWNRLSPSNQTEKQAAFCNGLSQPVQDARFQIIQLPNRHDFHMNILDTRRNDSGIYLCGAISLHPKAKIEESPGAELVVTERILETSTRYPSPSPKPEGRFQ
Method: The binding affinity of the anti-mouse PD1 antibody PD1-F2 was determined with a Surface Plasmon Resonance (SPR) system (BIAcore 3000) (Biacore, Piscataway, N.J.) using murine PD-1 fusion immobilized on a CM5 sensor chip. The concentration of PD1-F2 in the flow cell ranged from 7.81 to 125 nM, while the concentration of the anti-mouse PD1 antibody J43 (eBioscience, San Diego, Calif.) ranged from 25 nM to 500 nM.

Murine PD-1 on cells [5] = molecular target: T2, Murine PD-1 on cells; experiment: IgG; inhibition of biotinylated murine PD-L1 fusion binding to cells expressing murine PD-1
Method: as §1, with “Cells” for “PD1-F2 scFv was produced and purified as described above. Cells”

Binder	IC50 [1] [nM]	IC50 [2] [nM]	other results
B1	74	–	–
B2	–	1.8	–
B3	–	2.3	–
B4	726	–	–
B5	–	2.5	–
B6	–	1.4	–
B7	560	–	–
B8	–	–	IC50 (Murine PD-1 on cells [3]): 28 nM
B9	–	–	Ka [4]: 1.5e+08 M⁻¹; Kd [4]: 6.7 nM; IC50 (Murine PD-1 on cells [5]): 1 nM
